The target of the data set is T1, LipR (Bacillus thuringiensis BMB171, UniProt A0A0G3DYA8 1-337).
T1 sequence: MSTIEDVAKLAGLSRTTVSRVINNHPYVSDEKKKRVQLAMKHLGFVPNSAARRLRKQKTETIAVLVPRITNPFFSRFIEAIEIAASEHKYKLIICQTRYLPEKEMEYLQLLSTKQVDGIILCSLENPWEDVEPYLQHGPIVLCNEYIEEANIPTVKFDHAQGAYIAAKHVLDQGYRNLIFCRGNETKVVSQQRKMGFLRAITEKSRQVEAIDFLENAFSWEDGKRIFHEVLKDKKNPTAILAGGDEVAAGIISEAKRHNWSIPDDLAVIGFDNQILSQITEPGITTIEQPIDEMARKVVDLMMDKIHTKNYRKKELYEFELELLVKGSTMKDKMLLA
Nature of the data set: EMSA; LipR: 25 mM Tris pH 8.5-9, 150 mM NaCl, 10% glycerol; CcpA/AbrB: 50 mM Tris-HCl pH 7.5, 10 mM MgCl2, 1 mM DTT, 100 mM NaCl; 28 C, 25 min, 10 ul; 500 ng poly(dI-dC) when needed; 6% native PAGE, 0.5x TBE. The settings on record: protein: recombinant, tags: C-terminal His (pET-28a), chain copies: 2.

B1: 30-bp footprint fragment (dsDNA)
DNA 1: ATATAATCAATTTAAGAAAACGTTTTCATG
DNA 2: CATGAAAACGTTTTCTTAAATTGATTATAT
For B1, the binding result was “binds”.

B2: D6 (dsDNA)
DNA 1: CAATTTAAGAAAACGTTTTCATG
DNA 2: CATGAAAACGTTTTCTTAAATTG
Turning to B2, the binding result is reported as “binds”.

B3: 18-bp minimal LipR site (dsDNA)
DNA 1: TAAGAAAACGTTTTCATG
DNA 2: CATGAAAACGTTTTCTTA
Consider B3, for which, under “blunt”, the binding result was “binds”.

Source of the values: publication PMC10989752, “LipR functions as an intracellular pH regulator in Bacillus thuringiensis under glucose conditions”.
